Experimental data published in patent US20260232830A1 (JIANGSU HENGRUI PHARMACEUTICALS, published 2026).
Changes are numbered by the printed parent chain.

Key:
[1] = biological target: T1, human MUC1-C on stably transfected cells (human, UniProt P15941 961-1255, limits assumed); assay: FACS, HCC827-human-MUC1-C, Test 2
T1 construct: domain: MUC1-C; the cell line of each value is named under assay; also called HCC827-human-MUC1-C cells; CHOK1-human-MUC1-C cells

[2] = biological target: T1, human MUC1-C on stably transfected cells; assay: FACS, HCC827-human-MUC1-C, Test 1
[3] = biological target: T2, human MUC1 as expressed on tumour cell lines (T47D, HCC827, HPAC) (human, UniProt P15941 24-1255); assay: FACS, HPAC
T2 construct: whole, on cells; the cell line is named under assay; also called T47D cells; HCC827 cells

[4] = biological target: T1, human MUC1-C on stably transfected cells; assay: FACS, HCC827-human-MUC1-C, Test 2; remark: listed apart in the source
[5] = biological target: T2, human MUC1 as expressed on tumour cell …; assay: FACS, HCC827
[6] = biological target: T2, human MUC1 as expressed on tumour cell …; assay: FACS, T47D
[7] = biological target: T1, human MUC1-C on stably transfected cells; assay: FACS, HCC827-human-MUC1-C
[8] = biological target: T1, human MUC1-C on stably transfected cells; assay: FACS, CHOK1-human-MUC1-C
[9] = biological target: T1, human MUC1-C on stably transfected cells; assay: FACS, CHOK1-human-MUC1-C; remark: listed apart in the source

B1: M6-H2L2 (antibody, human IgG1, kappa, V domains shown)
VH: EVQLVQSGAEVKKPGASVKVSCKASGYRFIPYWIEWVRQAPGQGLEWMGEILPGTGRTNYNEKFKGRVTFTADTSTNTVYMELSSLRSEDTAVYYCARYGDDTSGGYYAVDYWGQGTTVTVSS
VL: EIVLTQSPATLSLSPGERATLSCRASESVNILGTNLIHWYQQKPGQAPKLLIYHASNLETGIPARFSGSGSRTDFTLTISSLEPEDFAVYYCLQSRKIPWTFGGGTKVEIKR
notes: humanized, human IgG1
B1 showed an Emax [1] of 92700.

B2: M6-H7L2 (antibody, human IgG1, kappa, V domains shown)
VH: B1 VH with Q39E, A40R, Q43H, R87T, S88N, D101E
VL: B1 VL
notes: humanized, human IgG1
Work on B2 yielded an Emax [1] of 78400.

B3: M6-H5L3 (antibody, human IgG1, kappa, V domains shown)
VH: B1 VH with Q39E, A40R, Q43H, R87T, D101E
VL: B1 VL with E1D, L4M, F87V
notes: humanized, human IgG1
B3 showed an Emax [1] of 73000.

B4: M6-H7L3 (antibody, human IgG1, kappa, V domains shown)
VH: B1 VH with Q39E, A40R, Q43H, R87T, S88N, D101E
VL: B1 VL with E1D, L4M, F87V
notes: humanized, human IgG1
With B4 the Emax [1] was 48900.

B5: M4-H1L2 (antibody, human IgG1, kappa)
heavy: not shown
light: DIVMTQSPSSLSASVGDRVTITCSASSSVFNMNWYQQKPGKSPKLWIYDISKLASGVPSRFSGSGSGTDFTLTISSLQPEDFATYYCQQRSFYPPTFGGGTKVEIKRTVAAPSVFIFPPSDEQLKSGTASVVCLLNNFYPREAKVQWKVDNALQSGNSQESVTEQDSKDSTYSLSSTLTLSKADYEKHKVYACEVTHQGLSSPVTKSFNRGEC
notes: humanized, human IgG1
Binder B5 has an Emax [2] of 74400.

B6: M4-H1L1 (antibody, human IgG1, kappa)
heavy: not shown
light: B5 light with V3Q
notes: humanized, human IgG1
Binder B6 has an Emax [3] of 22400, an EC50 [4] of 5 nM and an Emax [4] of 42300. The Emax [5] was 3630 and the Emax [6] was 5250.

B7: M4H1L1-9-A (antibody, human IgG1, kappa)
heavy: not shown
light: B5 light with V3Q
modifications: compound 9-A coupled to reduced cysteines of the antibody (chains and sites not stated), average n=6.6
notes: also called MUC1 monoclonal antibody ADC
Binder B7 has an Emax [3] of 29200 and an Emax [5] of 3690.

B8: ChiF4-18 (antibody, human IgG1, kappa, V domains shown)
VH: EVQLQQSGAELVRPGSSVKMSCKTSGYTFTSYGINWVKQRPGQGLEWIGYIYLGSDYTEYNEKFKGKATLTSDTTSSTAYMQLSSLTSEDSAIYFCARSAGSLFAYWGQGTLVTVSA
VL: DIQLTQSPSSLSASLGERVSLTCRASQDIGITLNWLQQEPDGTIKRLIYATSSLDSGVPKRFSGSRSGSDYSLTISSLESEDFVDYYCLQYASSPYTFGGGTKLEIKR
notes: murine variable regions on human IgG1 constant regions; also called chimeric antibody of F4-18
Work on B8 yielded an Emax [7] of 20900.

B9: ChiF4-1 (antibody, human IgG1, kappa, V domains shown)
VH: QIQLQQSGPELVKPGASVKISCKASGYTFTDNYINWVKQRPGQGLEYIGWIYPGSGNNKFNEKFKGKATLTVDTSSRTAFMQLSSLTFEDSAVYFCARDYPFPSYHYGMDYWGQGTSVTVSS
VL: QILLTQSPAIMSASPGERVTITCSASSSVSYIHWFQQKPGTSPKLWIYSTSNLASGVPPRFSGSGSGTSFSLTVSRMEAEDAATYYCQQRSSYPPTFGGGTKLEIKR
notes: murine variable regions on human IgG1 constant regions; also called chimeric antibody of F4-1
B9 was tested, and the Emax [7] was 21500.

B10: F4-1-H1L2 (antibody, human IgG1, kappa, V domains shown)
VH: EVQLVQSGAEVKKPGASVKVSCKASGYTFTDNYINWVRQAPGQRLEYMGWIYPGSGNNKFNEKFKGRVTITVDTSASTAYMELSSLRSEDTAVYYCARDYPFPSYHYGMDYWGQGTTVTVSS
VL: DIQLTQSPSSLSASVGDRVTITCSASSSVSYIHWFQQKPGKAPKLWIYSTSNLASGVPSRFSGSGSGTDFTLTVSSLQPEDFATYYCQQRSSYPPTFGGGTKVEIKR
notes: humanized, human IgG1
In the case of B10, the Emax [8] is reported as 102000.

B11: F4-1-H2L3 (antibody, human IgG1, kappa, V domains shown)
VH: B10 VH with M48I, I70L, S77R
VL: B10 VL with K41T, A42S
notes: humanized, human IgG1
B11 showed an Emax [8] of 122000.

B12: ChiM4 (antibody, human IgG1, kappa, V domains shown)
VH: QVQLQQSGAELARPGASVKLSCKASGYSFTTYGVPWVKQRTGQGLEWIGDIYPRSGNTYYNEKFKGKATLTADKSSDTVFMELRSLSSEDSAVYFCAREDYDNYPYALDYWGQGTSVTVSS
VL: EIVLTQSPAIIAASPGEKVTITCSASSSVFNMNWYQQKPGSSPKIWIYDISKLASGVPGRFSGSGSGTSFSLTINSMEAEDVGTYYCQQRSFYPPTFGGGTKVEIKR
notes: murine variable regions on human IgG1 constant regions; also called chimeric antibody of M4
B12 gave an Emax [7] of 13200.

B13: F4-18-H2L3 (antibody, human IgG1, kappa, V domains shown)
VH: EVQLVQSGAEVKKPGASVKVSCKASGYTFTSYGINWVRQRPGQGLEWIGYIYLGSDYTEYNEKFKGRVTLTSDTSASTAYMELSSLRSEDTAVYYCARSAGSLFAYWGQGTLVTVSS
VL: DIQLTQSPSSLSASVGDRVTITCRASQDIGITLNWLQQKPGKAIKRLIYATSSLDSGVPSRFSGSRSGSDYTLTISSLQPEDFATYYCLQYASSPYTFGGGTKVEIKR
notes: humanized, human IgG1
For B13, the Emax [9] was 80400.

B14: F4-18-H3L4 (antibody, human IgG1, kappa, V domains shown)
VH: B13 VH with K12V, V20M, A24T
VL: B13 VL with K39E, K42G, S60K
notes: humanized, human IgG1
In the case of B14, the Emax [9] is reported as 73400.
